The values below come from patent US20120278951A1 (AGRESEARCH, published 2012).

Data set [1] concerns the molecule itself. Put plainly: self-association (dimer) seen by SDS-PAGE/immunoblot; almost completely disrupted by SDS plus urea.
Data set [2] deals with the molecule itself. Put plainly: self-association seen by SDS and SDS-UREA PAGE/immunoblot; on artificial oil bodies with GSSG also trimeric, tetrameric and likely pentameric disulfide cross-linked oligomers.
Data set [3] deals with the molecule itself. Put plainly: self-association / disulfide cross-linking seen by SDS and SDS-UREA PAGE/immunoblot of inclusion bodies and artificial oil bodies.
Data set [4] concerns the molecule itself. Put plainly: disulfide cross-linked oligomers seen by non-reducing SDS-PAGE/immunoblot of artificial oil bodies.

B1: Oleosin disulfide 0,0 (sesame seed oleosin without engineered cysteines), E. coli expressed from pET29b (other)
chain: MKETAAAKFERQHMDSPDLGTLVPRGSMAEHYGQQQQTRAPHLQLQPRAQRVVKAATAVTAGGSLLVLSGLTLAGTVIALTIATPLLVIFSPVLVPAVITIFLLGAGFLASGGFGVAALSVLSWIYRYLTGKHPPGADQLESAKTKLASKAREMKDRAEQFSQQPVPWLISDPNSSSVDKLAAALEHHHHHHH
notes: Purified from E. coli inclusion bodies; also called Ole-0-0; Oleosin-0-0
Take B1: the binding result in data set [1] is recorded as “binds”.

B2: Oleosin disulfide 1,1 (sesame seed oleosin with one engineered cysteine in each hydrophilic arm), E. coli expressed from pET29b (other)
chain: MKETAAAKFERQHMDSPDLGTLVPRGSMACHYGQQQQTRAPHLQLQPRAQRVVKAATAVTAGGSLLVLSGLTLAGTVIALTIATPLLVIFSPVLVPAVITIFLLGAGFLASGGFGVAALSVLSWIYRYLTGKHPPGADQLESAKTKLASKAREMKDRAEQFSCQPVPWLEHHHHHH
notes: also called Ole-1-1; Oleosin-1-1
For the protein B2, the binding result in data set [2] is reported as “binds”.

B3: Oleosin disulfide 3,3 (sesame seed oleosin with three engineered cysteines in each hydrophilic arm), E. coli expressed from pET29b (other)
chain: MKETAAAKFERQHMDSPDLGTLVPRGSMACHYGQQQQTCAPHLQLQPRACRVVKAATAVTAGGSLLVLSGLTLAGTVIALTIATPLLVIFSPVLVPAVITIFLLGAGFLASGGFGVAALSVLSWIYRYLTGKHPPGADCLESAKTKLASCAREMKDRAEQFSCQPVPWLEHHHHHH
notes: also called Ole-3-3; Oleosin-3-3
Take B3: the binding result in data set [3] was “binds”.

B4: Oleosin disulfide 3,1 (sesame seed oleosin with three N-terminal and one C-terminal engineered cysteines), E. coli expressed from pET29b (other)
chain: MKETAAAKFERQHMDSPDLGTLVPRGSMACHYGQQQQTCAPHLQLQPRACRVVKAATAVTAGGSLLVLSGLTLAGTVIALTIATPLLVIFSPVLVPAVITIFLLGAGFLASGGFGVAALSVLSWIYRYLTGKHPPGADQLESAKTKLASKAREMKDRAEQFSCQPVPWLEHHHHHH
notes: also called Ole-3-1; Oleosin-3-1
For the protein B4, in data set [4], the binding result is recorded as “binds”.

B5: Oleosin disulfide 1,3 (sesame seed oleosin with one N-terminal and three C-terminal engineered cysteines), E. coli expressed from pET29b (other)
chain: MKETAAAKFERQHMDSPDLGTLVPRGSMACHYGQQQQTRAPHLQLQPRAQRVVKAATAVTAGGSLLVLSGLTLAGTVIALTIATPLLVIFSPVLVPAVITIFLLGAGFLASGGFGVAALSVLSWIYRYLTGKHPPGADCLESAKTKLASCAREMKDRAEQFSCQPVPWLEHHHHHH
notes: also called Ole-1-3; Oleosin-1-3
On to B5, for which the binding result in data set [4] is given as “binds”.
